Experimental data published in paper PMC8395052.

Target: T1, human estrogen receptor-alpha (ERα) fused at its N-terminus with NanoLuc luciferase (Nluc-ERα) or HaloTag (HT-ERα) (human), P03372
T1 chain: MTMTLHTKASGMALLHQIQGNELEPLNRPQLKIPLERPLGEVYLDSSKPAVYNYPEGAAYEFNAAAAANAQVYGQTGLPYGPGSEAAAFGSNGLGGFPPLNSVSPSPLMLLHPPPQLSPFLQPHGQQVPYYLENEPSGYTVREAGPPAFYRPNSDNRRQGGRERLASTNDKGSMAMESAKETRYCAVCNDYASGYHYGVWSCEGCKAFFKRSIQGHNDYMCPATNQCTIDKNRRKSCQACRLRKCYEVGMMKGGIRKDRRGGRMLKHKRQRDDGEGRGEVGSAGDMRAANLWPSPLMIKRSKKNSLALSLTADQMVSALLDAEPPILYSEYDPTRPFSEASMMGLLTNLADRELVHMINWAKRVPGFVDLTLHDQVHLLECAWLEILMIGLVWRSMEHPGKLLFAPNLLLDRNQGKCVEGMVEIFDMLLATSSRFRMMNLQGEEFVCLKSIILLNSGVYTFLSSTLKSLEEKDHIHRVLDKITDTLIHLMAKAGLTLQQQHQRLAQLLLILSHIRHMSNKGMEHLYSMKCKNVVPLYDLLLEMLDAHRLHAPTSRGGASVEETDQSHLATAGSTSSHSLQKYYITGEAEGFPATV
Test: FRET or BRET; NanoBRET in living HEK293 cells co-transfected with Nluc-ERα (donor) and HT-ERα (acceptor), 1:1; HaloTag NanoBRET 618 ligand; cells treated 24 h with E2, 17α-estradiol, diethylhexyl phthalate, bisphenol A or 4-nonylphenol; fold induction of the corrected BRET unit (618 nm/460 nm) over the vehicle control (0.1% DMSO)
Conditions: remark: other sources report otherwise

B1: human estrogen receptor-alpha (ERα) fused at its N-terminus with NanoLuc luciferase (Nluc-ERα) or HaloTag (HT-ERα), P03372 1-595 (receptor)
chain: MTMTLHTKASGMALLHQIQGNELEPLNRPQLKIPLERPLGEVYLDSSKPAVYNYPEGAAYEFNAAAAANAQVYGQTGLPYGPGSEAAAFGSNGLGGFPPLNSVSPSPLMLLHPPPQLSPFLQPHGQQVPYYLENEPSGYTVREAGPPAFYRPNSDNRRQGGRERLASTNDKGSMAMESAKETRYCAVCNDYASGYHYGVWSCEGCKAFFKRSIQGHNDYMCPATNQCTIDKNRRKSCQACRLRKCYEVGMMKGGIRKDRRGGRMLKHKRQRDDGEGRGEVGSAGDMRAANLWPSPLMIKRSKKNSLALSLTADQMVSALLDAEPPILYSEYDPTRPFSEASMMGLLTNLADRELVHMINWAKRVPGFVDLTLHDQVHLLECAWLEILMIGLVWRSMEHPGKLLFAPNLLLDRNQGKCVEGMVEIFDMLLATSSRFRMMNLQGEEFVCLKSIILLNSGVYTFLSSTLKSLEEKDHIHRVLDKITDTLIHLMAKAGLTLQQQHQRLAQLLLILSHIRHMSNKGMEHLYSMKCKNVVPLYDLLLEMLDAHRLHAPTSRGGASVEETDQSHLATAGSTSSHSLQKYYITGEAEGFPATV
modifications: here or on the partner: HaloTag NanoBRET 618 ligand on the HaloTag of the acceptor copy; HaloTag NanoBRET 618 ligand on the HaloTag of the acceptor copy
- fold induction of the BRET signal over vehicle control, with 4-nonylphenol: 2.3 fold
- fold induction of the BRET signal over vehicle control, with 17α-estradiol 10^-8 M: 2.7 fold
- fold induction of the BRET signal over vehicle control, with E2 10^-9 M: 2.7 fold
- fold induction of the BRET signal over vehicle control, with bisphenol A 10^-5 M: 5.7 fold
- fold induction of the BRET signal over vehicle control, with diethylhexyl phthalate: 2.3 fold
